B1: FAT1 25 mer Peptide 3 (peptide)
peptide: IQVEATDKDLGPNGHVTYSIVTDTD
notes: Made by chemical synthesis
B2: FAT1 25 mer Peptide 2 (peptide)
peptide: YHVIATDKDEGPNAEISYSIEDGNE
notes: Made by chemical synthesis
B3: FAT1 25 mer Peptide 1 (peptide)
peptide: REPLYHVIATDKDEGPNAEISYSIE
notes: Made by chemical synthesis
B4: anti-FAT1 monoclonal antibody mAb91.3 (antibody, V domains shown)
VH: VQLQQSGSELVRPGASVKLSCKASGYTFTRSWMHWIKQRPGQGLEWIGNIYPGSGGTNYDEKFKSKATLTVDTSSSTAYMQLSSLTSEDSAIYYCTRSGGQRFDYWGQGTTLTVSS
VL: IVMTQSPAIMSAFSGEKVTMTCSASSSVSSMHWYQQKSSTSPKFWIYDTSKLASGVPGRFSGSGSGNSYSLTISSMEAEDVATYYCFQGSGYPFTFGGGTKLEIKR
notes: Mouse hybridoma antibody, subclass IgG1k; also called anti-FAT1 mAb91.3; the anti-FAT1 monoclonal antibody

Experiments:
[1] = target: B4; experiment: FACS competition on HCT-15 cells: mAb91.3 incubated with rising peptide concentration; blocked partner is FAT1 on the cell surface
Experimental: For Flow Cytometry analysis, cells (2×10⁴ per well) were pelleted in 96 U-bottom microplates by centrifugation at 200× g for 5 min at 4° C. and incubated for 1 hour at 4° C. with the appropriate dilutions of anti-FAT1-monoclonal antibody. The cells were washed twice in PBS-5% FCS and incubated for 20 min with the appropriate dilution of R-Phycoerythrin (PE)-conjugated secondary antibodies (Jackson Immuno Research, PA, USA) at 4° C. After washing, cells were analysed by a FACS Canto II flow cytometer (Becton Dickinson). Data were analyzed with FlowJo 8.3.3 program.

[2] = target: B1; experiment: ELISA with 25 mer peptides
Experimental: (§1) For ELISA competition experiments, ELISA plates (Nunc Maxisorp) were coated with 1 μg of the FAT1 recombinant proteins in PBS (pH 7.4) at 4° C. overnight. The plates were washed, treated for 1 h at 37° C. with PBS-1% BSA, and 100 μl aliquots of mAb91.3 at (10 micrograms/ml) in PBS-0.1% Tween were added to the wells in the presence of the 25 mer peptides at concentration ranging from 0.001 to 100 micrograms/ml. After incubation for 2 h at 37° C., plates were again washed and incubated for 1 h at 37° C. with alkaline-phosphatase conjugated goat anti-mouse IgG (Sigma) diluted 1:2500 in PBS-Tween. Thereafter 100 μl of PNPP substrate (Sigma) were added to the samples and incubated for 30 min at room temperature and optical densities were read at 405 nm.

[3] = target: B3; experiment: ELISA with 25 mer peptides
Experimental: as §1

[4] = target: B2; experiment: ELISA with 25 mer peptides
Experimental: as §1

[5] = target: T1, FAT1 recombinant cadherin Domain 12 (amino acid 1246 to 1352) (human, UniProt Q14517 1250-1344, limits assumed); experiment: SPR, Biacore T100, 25 C, FAT1 domain amine-coupled to CM5 chip, mAb91.3 injected, 1:1 Langmuir model
T1 construct: Recombinant form purified from E. coli, used in ELISA, SPR and Western blot; Any tag is not described; also called FAT Domain 12
T1 sequence: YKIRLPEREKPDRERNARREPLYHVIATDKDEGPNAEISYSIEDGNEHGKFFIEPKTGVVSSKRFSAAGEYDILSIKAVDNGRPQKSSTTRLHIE
Experimental: (§2) The kinetics of association and dissociation and the Dissociation constants of the anti-FAT1 mAb91.3 were determined using Surface Plasmon Resonance Analysis. Experiments were performed at 25° C. with a BIACORE T100 instrument (Biacore A B, Uppsala, Sweden). The recombinant FAT1 proteins were immobilised on a carboxymethylated dextran-coated (CM5) sensor chip by amine coupling. Briefly, a mixture of 0.2 M 1-ethyl-3-[…]-carbodiimide (EDC) and 0.05 M N-hydroxysuccinimide (NHS) was used for sensor chip surface activation. Proteins pre-concentrated in 0.01 M sodium acetate pH 3.5 were injected at concentration ranging from 2.5 and 5 μg/ml for 10 min and then 1 M ethanolamine pH 8.5 was used to block any remaining activated groups. mAb91.3 was diluted in HBS-EP+buffer at different concentrations from 0.625 μg/ml to 5 μg/ml and injected for 120 s at a flow rate of […] on flow cell 2 and 3. HBS-EP+ buffer was run as control.

[6] = target: T2, FAT1 recombinant cadherin Domain 8 (amino acid 823 to amino acid 927) (human, UniProt Q14517 826-923, limits assumed); experiment: as above
T2 construct: Recombinant form purified from E. coli, used in ELISA and SPR; Any tag is not described; A His6-V5 tagged version was also expressed in transfected HeLa and HEK-293T cells for Western blot; also called FAT Domain 8
T2 sequence: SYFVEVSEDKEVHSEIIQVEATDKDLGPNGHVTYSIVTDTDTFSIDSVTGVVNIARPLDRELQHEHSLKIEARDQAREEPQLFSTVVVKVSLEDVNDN
Experimental: as §2

B1: binds [1].

B2: binds [1].

In the case of B3, the “IC50 (read off the curve)” value [1] is reported as ~0.5 µg/mL.

B4: binds [2]; binds [3]; binds [4]. It also gave a Kd [5] of 18.2 nM, a koff [5] of 0.00707 s⁻¹ and a kon [5] of 389000 M⁻¹ s⁻¹. It also gave a Kd [6] of 9.52 nM, a koff [6] of 0.00313 s⁻¹ and a kon [6] of 329000 M⁻¹ s⁻¹.

— patent US20160131656A1 (EXTERNAUTICS S P A, published 2016)
